Laboratory results as given in US20160030510.

Molecular target: human tau protein, P10636
Sequence (P10636 whole entry, looked up): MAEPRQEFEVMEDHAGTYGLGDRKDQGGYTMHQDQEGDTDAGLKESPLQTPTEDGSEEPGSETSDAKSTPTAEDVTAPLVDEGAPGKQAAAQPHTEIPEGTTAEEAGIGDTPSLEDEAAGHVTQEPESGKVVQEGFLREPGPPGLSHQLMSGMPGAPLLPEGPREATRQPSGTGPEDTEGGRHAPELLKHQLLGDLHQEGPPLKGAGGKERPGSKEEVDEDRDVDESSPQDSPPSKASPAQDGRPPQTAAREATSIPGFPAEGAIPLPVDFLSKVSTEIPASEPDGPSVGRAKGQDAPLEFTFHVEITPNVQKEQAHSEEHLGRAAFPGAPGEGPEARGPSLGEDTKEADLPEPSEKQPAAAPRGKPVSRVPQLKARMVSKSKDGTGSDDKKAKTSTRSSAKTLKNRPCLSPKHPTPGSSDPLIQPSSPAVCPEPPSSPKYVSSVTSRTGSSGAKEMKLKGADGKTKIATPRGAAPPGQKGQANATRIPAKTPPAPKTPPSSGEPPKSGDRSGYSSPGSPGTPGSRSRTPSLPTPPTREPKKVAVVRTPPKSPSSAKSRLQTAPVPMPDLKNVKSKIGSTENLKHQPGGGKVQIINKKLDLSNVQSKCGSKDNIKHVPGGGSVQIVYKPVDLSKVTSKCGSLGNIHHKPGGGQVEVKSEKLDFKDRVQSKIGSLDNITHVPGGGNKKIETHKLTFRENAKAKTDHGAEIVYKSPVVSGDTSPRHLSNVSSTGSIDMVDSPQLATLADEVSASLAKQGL

B1: human MARK4 (microtubule affinity regulating kinase 4) (protein)
chain: MSSRTVLAPGNDRNSDTHGTLGSGRSSDKGPSWSSRSLGARCRNSIASCPEEQPHVGNYRLLRTIGKGNFAKVKLARHILTGREVAIKIIDKTQLNPSSLQKLFREVRIMKGLNHPNIVKLFEVIETEKTLYLVMEYASAGEVFDYLVSHGRMKEKEARAKFRQIVSAVHYCHQKNIVHRDLKAENLLLDAEANIKIADFGFSNEFTLGSKLDTFCGSPPYAAPELFQGKKYDGPEVDIWSLGVILYTLVSGSLPFDGHNLKELRERVLRGKYRVPFYMSTDCESILRRFLVLNPAKRCTLEQIMKDKWINIGYEGEELKPYTEPEEDFGDTKRIEVMVGMGYTREEIKESLTSQKYNEVTATYLLLGRKTEEGGDRGAPGLALARVRAPSDTTNGTSSSKGTSHSKGQRSSSSTYHRQRRHSDFCGPSPAPLHPKRSPTSTGEAELKEERLPGRKASCSTAGSGSRGLPPSSPMVSSAHNPNKAEIPERRKDSTSTPNNLPPSMMTRRNTYVCTERPGAERPSLLPNGKENSSGTPRVPPASPSSHSLAPPSGERSRLARGSTIRSTFHGGQVRDRRAGGGGGGGVQNGPPASPTLAHEAAPLPAGRPRPTTNLFTKLTSKLTRRVADEPERIGGPEVTSCHLPWDQTETAPRLLRFPWSVKLTSSRPPEALMAALRQATAAARCRCRQPQPFLLACLHGGAGGPEPLSHFEVEVCQLPRPGLRGVLFRRVAGTALAFRTLVTRISNDLEL
In the case of B1, the “in vitro kinase assay: phospho-tau, Western blot” value is reported as “the levels of total tau and phospho-tau generated by MARK4 were detected by Western blot analysis”.
